In PMC3276575, “Structural and Functional Insights into the Pilotin-Secretin Complex of the Type II Secretion System” (PLoS Pathogens, 2012):
Numbering of substitutions follows the chain as printed. Ends that are not written are not given here.

Experiments:
[1] = system: pilotin (OutS); assay: 3JHNHA NMR spectra of secretin peptide with pilotin; assay type: binding, Dickeya dadantii; conditions: presence of pilotin, 15°C
Procedure: (§1) Samples of 0.05 to 0.5 mM labelled proteins in 90% H2O, 10% ^2H2O containing 20 mM Tris (pH 7.0) and 150 mM NaCl. All NMR spectra were acquired at 15°C using Bruker Avance 700- and 600-MHz spectrometers. Assignment of ^1H, ^15N, and ^13C resonances of the backbone was achieved by analysis of HNCACB, CBCA (CO)NH triple resonance experiments.
Supplementary file ppat.1002531.s005.doc: Figure S5 3JHNHA spectra of ^15N-labelled secretin peptide (OutD^680–710) in the absence (red) and presence (black) of pilotin (OutS). The spectra were acquired using a Bruker 700 MHz spectrophotometer at measured at 15°C. […] The 3JHNHA coupling constant was calculated according to measurement of the diagonal-peak to cross-peak intensity ratio in a 3D ^15N separated quantitative J-correlation spectra. […] (DOC) Click here for additional data file.

[2] = target: T1, non-lipidated pilotin OutS (residues 26 to 132) of Dickeya dadantii (Dickeya dadantii, UniProt Q01567 26-132, disulfide bridge Cys 61-Cys 115); assay: NMR titration; 1H-15N HSQC of 15N-labelled pilotin (100 µM), unlabelled secretin peptides titrated in; 15°C, 20 mM Tris pH 7.0, 150 mM NaCl; conditions: both partners purified
T1 chain: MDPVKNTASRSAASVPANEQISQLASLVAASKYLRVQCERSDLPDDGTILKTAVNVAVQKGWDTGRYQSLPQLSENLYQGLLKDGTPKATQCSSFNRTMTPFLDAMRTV

[3] = target: T1, non-lipidated pilotin OutS (residues 26 …); assay: other fluorescence titration; quenching of the single tryptophan of pilotin (1 µM) on titration with 50 µM secretin peptide in 1 µM pilotin; excitation 290 nm, signal at 340 nm, 15°C; conditions: both partners purified
[4] = system: OutS; assay: Bacterial two-hybrid assay; assay type: cell-based, Dickeya dadantii
Procedure: (§2) Figure S6. Reducing environment prevents interaction of OutS with the C-terminal peptide of OutD. […] Soluble cell extracts of E. coli BL21(DE3) producing either GST alone (lane 1) or GST-OutD649-710 (lanes 2 and 3) were combined with a periplasmic extract containing non-lipidated OutS, then loaded on Glutathione Agarose for 1 h and washed. The incubations were performed in either TBS (lanes 1 and 2) or TBS with 5 mM DTT (lane 3). Bound proteins were eluted with Laemmli sample buffer, separated by Tricine-SDS-PAGE and either stained (upper panel) or probed with OutS antibodies (lower panel). Asterisk indicates a degradation product of GST-OutD649-710. […] The region coding for mature OutS (residues […]) was fused to the C-terminus of T18 subunit of Cya (pUT18-OutS) and the region coding for GST-OutD649-710 was fused to the C-terminus of T25 subunit of Cya (pKT25-GST-Dct). When pUT18-OutS and pKT25-GST-Dct were coexpressed in E. coli DHP1 cya strain, the coresponding fusion proteins were well produced as shown by immunoblotting with anti-OutS and anti-GST antibodies, respectively. […] is indicated by a dot and T25-GST-Dct by a triangle.

[5] = system: non-lipidated OutS; assay: GST pull-down assay; assay type: binding, Dickeya dadantii
Procedure: as §2

[6] = system: secretin; assay: Effect of pilotin binding-surface mutations on secretin binding; set-up: species or system Dickeya dadantii; conditions: in words
Source text: The pET-20b(+) plasmid expressing non-lipidated OutS (residues 26 to 132) fused to N-terminal PelB signal peptide has been constructed previously at a manner as the sequence of mature non-lipidated OutS after cleavage by the signal peptidase LepB is: MDP^26VKNT etc. To fuse a C-terminal 6His tag to non-lipidated OutS, SalI site was introduced at the end of outS sequence by using the primer (5′-ctt gac gcc atg cgc acc gtc gac tga ggg gga agc aac tgc) and the reverse complementary one (mutated bases are underlined). Then, by SalI/XhoI digestion the sequence coding for non-lipidated OutS was fused with that coding for 6His. Mutants of OutS were made using Strategene QuikChange and confirmed by sequencing.
Fluorescence data were collected using a Jasco FP-6300 Spectrofluorometer. To avoid exciting tyrosyl side chains, an excitation wavelength of 290 nm was used. Emission spectra were recorded at 15°C in steps of 2 nm from 310 to 400 nm. The fluorescence signal at 340 nm was plotted to calculate K d. Pilotin spectra was measured at 1 µM. 50 µM of secretin peptide prepared in 1 µM pilotin was titrated into pilotin solution (for more information see also Table S1 and reference).

[7] = Cleavage of secretin peptide during lengthy NMR experiments; assay type: physicochemical; conditions: during more lengthy NMR experiments; 20 mM Tris pH 7.0, 150 mM NaCl, 15°C
Procedure: (§3) Supplementary file ppat.1002531.s004.doc: Figure S4 The C-terminus of the 62 residue secretin peptide ([…]) is unstructured. ^1H-^15N HSQC spectra of recombinantly produced ^15N-labelled secretin peptide (70 µM peptide in 20 mM Tris pH 7.0 with 150 mM NaCl at 15°C) acquired using a Bruker 700 MHz spectrophotometer. […] The spectra are cleaner than those shown previously (Figure S2 and S3) because the spectra were acquired quickly. […] (DOC) Click here for additional data file.

[8] = system: pilotin; conditions: ref [11]; cited from earlier work
Source text: This secretin peptide was produced with ^15N-label as a fusion to GST and then released with PreScision protease.

[9] = NMR 1H-15N HSQC of free secretin peptide (disorder); assay type: physicochemical; conditions: 20 mM Tris pH 7.0, 150 mM NaCl, 15°C, 700 MHz
Procedure: as §1, §3

With “OutD^680–710: 15N-labelled secretin peptide (OutD680–710) (DNNTLRLSGGNTYTFRQVQSSISDFYKPEGR; also: 15N-labelled; UniProt Q01565 680-710, looked up, fragment)” the “residues of secretin peptide that become helical on binding” value [1] was “at least four”.

B1: 62 residue C-terminal secretin peptide (OutD residues 649-710) (peptide)
chain: DPGQFQEASINKYRSFNNEQQQQRGEGNGVLDNNTLRLSGGNTYTFRQVQSSISDFYKPEGR
notes: secretin OutD, Dickeya dadantii, C-terminal 62 residues (649-710); 15N-labelled in one titration, unlabelled in the other; The peptide is slowly cleaved; also called 62 residue secretin peptide; OutD^648–710; source: E. coli BL21(DE3), purified as GST fusion, released with PreScision protease; not shown: GST, N-terminal, cleaved
With B1 the “stoichiometry N” value [2] was 1.

B2: 18 residue synthetic secretin peptide (OutD residues 691 to 708 inclusive) (peptide)
peptide: TYTFRQVQSSISDFYKPE
notes: secretin OutD, Dickeya dadantii, residues 691 to 708 inclusive; also called 18 residue secretin peptide; OutD^691–708; source: synthetic peptide, bought: Generon
In the case of B2, the Kd [3] is reported as 55 ± 20 nM and the “stoichiometry N” value [3] is reported as 1.

B3: OutS: Dickeya dadantii type II secretion system pilotin, non-lipidated (residues 26 to 132), UniProt Q01567 (protein)
chain: CQTPAPVKNTASRSAASVPANEQISQLASLVAASKYLRVQCERSDLPDDGTILKTAVNVAVQKGWDTGRYQSLPQLSENLYQGLLKDGTPKATQCSSFNRTMTPFLDAMRTVR
In the case of B3, the “binding to cognate secretin with reducing agent, two-hybrid” value ([4]; bacterial two-hybrid) is reported as “unable to bind the cognate secretin” and the “binding to cognate secretin with reducing agent, pull-down” value ([5]; reducing agent, non-lipidated OutS with GST-OutD649–710) is reported as “unable to bind the cognate secretin”.

B4: OutS_S49R (protein, UniProt Q01567 21-133, looked up, variant S49R)
Pilotin OutS: B3 chain with S29R
In the case of B4, the “effect of mutation on binding” value [6] is reported as “profound effect on binding”.

B5: OutS_L96A (protein, UniProt Q01567 21-133, looked up, variant L96A)
Pilotin OutS: B3 chain with L76A
For B5, the “effect of mutation on binding” value [6] was “substantial effect on binding”.

B6: OutS_L100A (protein, UniProt Q01567 21-133, looked up, variant L100A)
Pilotin OutS: B3 chain with L80A
For B6, the “effect of mutation on binding” value [6] was “substantial effect on binding”.

B7: OutS_Q114A (protein, UniProt Q01567 21-133, looked up, variant Q114A)
Pilotin OutS: B3 chain with Q94A
With B7 the “effect of mutation on binding” value [6] was “substantial effect on binding”.

B8: 62 residue secretin peptide: C-terminal 62 residues of the secretin, produced as a fusion to GST and released with PreScision protease (protein)
chain: B1 chain
modifications: left off: GST, N-terminal, cleaved
notes: C-terminal 62 residues of the secretin, produced as a fusion to GST and released with PreScision protease
For B8, the cleavage of peptide [7] is listed as “slowly cleaved”, the binding to pilotin [8] is listed as “bound to the pilotin” and the “structure in solution (dispersion of backbone amides)” value [9] is listed as “intrinsically unstructured”. The “structure in solution (dispersion of backbone amides)” value ([9]; listed as C-terminal 62 residues) was “unstructured in solution”.

B9: GST-OutD649-710: C-terminal segment of OutD fused to GST; in two-hybrid fused to C-terminus of T25 subunit of Cya (protein)
chain: B1 chain
modifications: not fully specified (N-terminus); also: fused to GST
notes: C-terminal segment of OutD fused to GST; in two-hybrid fused to C-terminus of T25 subunit of Cya
With B9 the “colony colour in bacterial two-hybrid assay” value ([4]; MacConkey-maltose agar, known interacting couple used as positive control) was “white colonies”, the “interaction in bacterial two-hybrid assay” value ([4]; reducing conditions of the bacterial cytoplasm, T25/T18 fusions, E. coli DHP1 cya, MacConkey-maltose agar) was “does not interact” and the “binding in GST pull-down” value ([5]; reducing conditions, TBS with 5 mM DTT, 1 h on Glutathione Agarose) was “does not bind”.
